Test results taken from patent US20200239927A1, “SENSOR FOR CYANURIC ACID DETECTION” (WISCONSIN ALUMNI RESEARCH FOUNDATION, priority 2019, published 2020).

Assays:
AtzR [1] = test: Fold repression of GFP reporter by co-expressed AtzR; assay type: cell-based; details: minimal medium
Experimental: (§1) To measure fold repression, each reporter plasmid was co-transformed with low and high copy sensor plasmid separately. The end results include two test versions for each reporter plasmid: (the reporter plasmid, low copy sensor plasmid), (the reporter, high copy sensor plasmid), reporter plasmids were transformed with either of the sensor plasmids. Similar to the process of measuring promoter activity, the activities of at least 3 biological replicates were measured for each reporter and sensor plasmid pair. The only difference was that 50 μg/mL kanamycin and […] Spectinomycin were used to maintain both of the reporter and sensor plasmids. The fold repression was calculated as a ratio of the fluorescence of reporter divided by the fluorescence of this reporter when it was paired with a sensor plasmid. To measure fold induction, the process of obtaining fold repression was followed. The only difference was the addition of 200 μM cyanuric acid during the growth. The fold induction was calculated as a ratio of the fluorescence of the induced state divided by the fluorescence of the repressed state.

AtzR [2] = test: Fold induction of GFP reporter by cyanuric acid with co-expressed AtzR; assay type: cell-based; details: for response to cyanuric acid (inducibility) / fold activation (ratio of GFP with and without cyanuric acid): 200 μM cyanuric acid; for response to cyanuric acid (inducibility) / uninduced baseline (no cyanuric acid): AtzR co-expressed; for increase in reporter expression in response to cyanuric acid: E. coli, medium not stated
Experimental: as §1

DH10B E. coli cells = test: Promoter activity: constitutive GFP reporter expression without AtzR; assay type: cell-based; details: for transcriptional activity compared with WT promoter, measured by reporter expression: E. coli, promoter only, no AtzR; for GFP reporter expression of cells carrying only the promoter: no AtzR present, rich and minimal media
Experimental: Fluorescence measurement: To measure promoter activities, transformed reporter plasmids (including WT promoter plasmid) were transformed into DH10B cells (NEB) using electroporation and plated cells on LB agar plates with kanamycin (50 ug/mL). After overnight growth at 37° C., at least 3 individual colonies were selected for each reporter plasmid and inoculated into 150 μL LB medium with 50 μg/mL kanamycin in a 96-well plate. After 3 hours of growth at 37° C. in a multi-plate shaker (1100 rpm, Southwest Science), cells were diluted 1:50 into 150 μL LB medium or MOPS medium (supplemented with 0.4% glucose and 1× BME vitamin) with 50 μg/mL kanamycin in a 96-well plate. Cells were grown at 37° C. with shaking (1100 rpm). After 16 hours, OD600 and fluorescence (excitation at 488 nm and emission at 520 nm with a gain of 40) of each well was measured using a multi-well plate reader (Synergy HTX, BioTek .Inc). Fluorescence was normalized against OD600. Blank (normalized fluorescence of cells carrying no GFP) was subtracted from those measurements. Mean and standard deviation of each reporter plasmid activity were calculated from measurements of 3 biological replicates.

AtzR [3] = test: Cyanuric acid dose response and visual detection limit of the AtzR biosensor; assay type: cell-based, E. coli DH10B; details: for cyanuric acid concentration at which signal begins to saturate: rich and minimal media (125 ppm)
Experimental: To obtain transfer functions of various reporter and sensor plasmid pairs, different concentrations of cyanuric acid were delivered via DMSO to cultures (less than 1% of the total volume). After growth for 16 hours, fluorescence was measured and normalized similar to previous experiments.
Visual detection limit: To determine the visual detection limit in LB and MOPS media, E. coli DH10B with or without constitutive GFP expression was grown in LB with appropriate antibiotics for 16 hours in […] on a shaker(1100 rpm). Two 2 mL aliquots from each culture were spun down at 5000 G for 5 minutes in a benchtop centrifuge at room temperature. The media was aspirated out and the cell pellets resuspended in either 2 mL LB or 2 mL MOPS media. The spin-down and resuspension procedure was repeated two more times. Then, cells without GFP in LB (or MOPS) were mixed with cells carrying GFP in LB (or MOPS) to 150 μL with various ratios (cells without GFP-cells with GFP: 100%-0%, 95%-5%, 90%-10%, 85%-15%, 70%-30%, 55%-45%, 30%-70%, 0%-100%). After measuring the fluorescence and OD600 of the mixed cultures in a 96-well plate, the cultures were transferred to ultra-thin strip tubes ordered by increasing percentage of cells carrying GFP. Five individuals were asked to identify the culture that they could be confident to tell apart (in terms of the color of the culture) from the culture containing no cells with GFP (100%-0%). The identification process for cultures in LB and MOPS was performed by placing culture tubes in front a piece of white paper. The weighted average of fluorescence of cultures was identified by five individuals for cultures in LB and MOPS. The calculated weights averages were defined and used as the visual detection limits in FIGS. 7-10 related experiments.

Chain of AtzR (as listed by the source): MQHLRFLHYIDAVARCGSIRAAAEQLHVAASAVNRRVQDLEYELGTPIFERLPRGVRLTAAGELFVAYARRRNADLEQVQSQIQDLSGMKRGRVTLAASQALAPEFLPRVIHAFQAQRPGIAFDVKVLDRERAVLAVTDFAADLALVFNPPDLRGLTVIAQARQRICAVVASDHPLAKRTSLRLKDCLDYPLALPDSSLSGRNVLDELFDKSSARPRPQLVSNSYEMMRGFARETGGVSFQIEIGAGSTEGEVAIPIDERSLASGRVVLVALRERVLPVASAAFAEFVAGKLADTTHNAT

“Promoter 10: group 2 promoter variant; apFAB spacer replaced with RBS L and R (DNA TTGACAGGTGCCGGATCGGCACCTATAATAGATTCATGATGA; expressed or natural sequence)” was tested, and the “fold repression (ratio of GFP expression without and with AtzR)” value (AtzR [1]) was 50 fold, the “response to cyanuric acid (inducibility)” value (AtzR [2]) was “lack of cyanuric acid response” and the “increase in reporter expression in response to cyanuric acid” value (“increase in reporter expression” for short) (AtzR [2]) was “greater than two-fold increase”. For the same molecule, the “transcriptional activity compared with WT promoter, measured by reporter expression” value (DH10B E. coli cells) was “transcriptionally more active than WT promoter”.

“Promoter 12: group 2 promoter variant, sequence SEQ ID NO: 14 (DNA GGTGCCGACACGGCACCTTTTTGTACCTATAATAGATTCATGATGA; expressed or natural sequence)” was tested, and the “transcriptional activity compared with WT promoter, measured by reporter expression” value (DH10B E. coli cells) was “transcriptionally more active than WT promoter”.

For “Promoter 13: group 2 promoter variant; apFAB spacer replaced with RBS in R-L orientation (DNA TTGACAGGTGCCGATCCGGCACCTATAATAGATTCATGATGA; expressed or natural sequence)”, the “increase in reporter expression” value (AtzR [2]) was “greater than two-fold increase” and the “transcriptional activity compared with WT promoter, measured by reporter expression” value (DH10B E. coli cells) was “transcriptionally more active than WT promoter”.

In the case of “Promoter 15: group 2 promoter variant; RBS placed upstream of -35 (DNA GGTGCCGATCCGGCACCTTGACATCGCATCTTTTTGTACCTATAATAGATTCATGATGA; expressed or natural sequence)”, the “lower threshold of detection of cyanuric acid” value (“lower threshold” below) (AtzR [3]; minimal media) is reported as about 15 µM, the “cyanuric acid concentration at which signal begins to saturate” value (from here on “cyanuric acid concentration”) (AtzR [3]) is reported as 1 mM and the “lower threshold” value (AtzR [3]; rich media) is reported as about 25 µM. The “transcriptional activity compared with WT promoter, measured by reporter expression” value (DH10B E. coli cells) was “transcriptionally more active than WT promoter”.

With “Promoter 16: group 2 promoter variant, sequence SEQ ID NO: 18 (DNA GGTGCCGATCCGGCACCTTTTTGTACCTATAATAGATTCATGATGA; expressed or natural sequence)” the “transcriptional activity compared with WT promoter, measured by reporter expression” value (DH10B E. coli cells) was “transcriptionally more active than WT promoter”.

B1: Promoter 7: group 1 promoter variant of presumed intermediate strength, -35 site mutated toward E. coli consensus (nucleic acid)
DNA: TCGGTGCCGGATCGGCACCAGTTAGGTCGGAAAAAGGCGGCAGACAAGTGCGCTTTTTGTACCTATATAGATTCATGATGA
modifications: expressed or natural sequence
For B1, the “transcriptional activity compared with WT promoter, measured by reporter expression” value (DH10B E. coli cells) was “transcriptionally more active than WT promoter” and the “GFP reporter expression of cells carrying only the promoter” value (DH10B E. coli cells) was “highest expression”.

B2: Promoter 4: group 1 promoter variant weakened by deleting a single base from the -10 site (nucleic acid)
DNA: TCGGTGCCGGATCGGCACCAGTTAGGTCGGAAAAAGGCGGCAGTCAAGTGCGCTTTTTGTACCTATAAAGATTCATGATGA
modifications: expressed or natural sequence
With B2 the “response to cyanuric acid (inducibility)” value (AtzR [2]) was “only promoter variant 2 was inducible”.

B3: Promoter 8: group 1 promoter variant of presumed intermediate strength, -35 site mutated toward E. coli consensus (nucleic acid)
DNA: TCGGTGCCGGATCGGCACCAGTTAGGTCGGAAAAAGGCGGCAGACAAGTGCGCTTTTTGTACCTATAAAGATTCATGATGA
modifications: expressed or natural sequence
In the case of B3, the “increase in reporter expression” value (AtzR [2]) is reported as “greater than two-fold increase”, the “transcriptional activity compared with WT promoter, measured by reporter expression” value (DH10B E. coli cells) is reported as “transcriptionally more active than WT promoter” and the “GFP reporter expression of cells carrying only the promoter” value (DH10B E. coli cells) is reported as “highest expression”.

B4: Promoter 3: group 1 promoter variant weakened by deleting a single base from the -10 site (nucleic acid)
DNA: TCGGTGCCGGATCGGCACCAGTTAGGTCGGAAAAAGGCGGCAGTCAAGTGCGCTTTTTGTACCTATATAGATTCATGATGA
modifications: expressed or natural sequence
B4 was tested, and the “response to cyanuric acid (inducibility)” value (AtzR [2]) was “only promoter variant 2 was inducible”.

B5: Promoter 14: group 2 promoter variant, sequence SEQ ID NO: 16 (nucleic acid)
DNA: GACCTAACTGGTGCCGATCCGGCACCGATCTTGTTGACATCGCATCTTTTTGTACCTATAATAGATTCATGATGA
modifications: expressed or natural sequence
For B5, the “transcriptional activity compared with WT promoter, measured by reporter expression” value (DH10B E. coli cells) was “transcriptionally more active than WT promoter”.

B6: Promoter 1: group 1 promoter variant; Pseudomonas -10 site replaced with consensus E. coli -10 site (nucleic acid)
DNA: ATGCGAGTCAAAGCAAGATCGGTGCCGGATCGGCACCAGTTAGGTCGGAAAAAGGCGGCAGTCAAGTGCGCAGGGCGGCGTTATAATTGAACGAA
modifications: expressed or natural sequence
notes: group 1 promoter variant; Pseudomonas -10 site replaced with consensus E. coli -10 site
For B6, the “lower threshold” value (AtzR [3]; minimal media) was about 15 µM, the “cyanuric acid concentration” value (AtzR [3]) was 1 mM and the “lower threshold” value (AtzR [3]; rich media) was about 25 µM. The “transcriptional activity compared with WT promoter, measured by reporter expression” value (DH10B E. coli cells) was “transcriptionally more active than WT promoter”.

B7: Promoter 2: group 1 promoter variant; sequence 3' of ABS 3 replaced with corresponding region of apFab71 (nucleic acid)
DNA: TCGGTGCCGGATCGGCACCAGTTAGGTCGGAAAAAGGCGGCAGTCAAGTGCGCTTTTTGTACCTATAATAGATTCATGATGA
modifications: expressed or natural sequence
B7 was tested, and the “response to cyanuric acid (inducibility)” value (AtzR [2]) was “inducible”, the “fold activation (ratio of GFP with and without cyanuric acid)” value (AtzR [2]; medium not specified) was “approximately 10 fold” and the “fold activation (ratio of GFP with and without cyanuric acid)” value (AtzR [2]; minimal media) was 15 fold. For the same molecule, the “increase in reporter expression” value (AtzR [2]) was “greater than two-fold increase”, the “uninduced baseline (no cyanuric acid)” value (AtzR [2]) was “about 4000 fluorescence units” and the “lower threshold” value (AtzR [3]; minimal media) was about 15 µM. For the same molecule, the “cyanuric acid concentration” value (AtzR [3]) was 1 mM, the “lower threshold” value (AtzR [3]; rich media) was about 25 µM and the “transcriptional activity compared with WT promoter, measured by reporter expression” value (DH10B E. coli cells) was “transcriptionally more active than WT promoter”.

B8: Promoter 5: group 1 promoter variant with consensus E. coli -35 and apFab71 3' sequence, on a high-copy number plasmid (nucleic acid)
DNA: TCGGTGCCGGATCGGCACCAGTTAGGTCGGAAAAAGGCGGCAGACAAGTGCGCTTTTTGTACCTATAATAGATTCATGATGA
For B8, the “fold activation (ratio of GFP with and without cyanuric acid)” value (AtzR [2]; medium not specified) was “approximately 10 fold”, the “increase in reporter expression” value (AtzR [2]) was “greater than two-fold increase” and the “uninduced baseline (no cyanuric acid)” value (AtzR [2]) was 22000 fluorescence units. For the same molecule, the “transcriptional activity compared with WT promoter, measured by reporter expression” value (DH10B E. coli cells) was “transcriptionally more active than WT promoter”.

B9: Promoter 6: group 1 promoter variant with consensus E. coli -35 and apFab71 3' sequence, on a low-copy number plasmid (nucleic acid)
DNA: TCGGTGCCGGATCGGCACCAGTTAGGTCGGAAAAAGGCGGCAGACAAGTGCGCTTTTTGTACCTATAATAGATTCATGATGA
For B9, the “fold repression (ratio of GFP expression without and with AtzR)” value (AtzR [1]) was 10 fold, the “fold activation (ratio of GFP with and without cyanuric acid)” value (AtzR [2]; medium not specified) was “approximately 10 fold” and the “increase in reporter expression” value (AtzR [2]) was “greater than two-fold increase”. The “transcriptional activity compared with WT promoter, measured by reporter expression” value (DH10B E. coli cells) was “transcriptionally more active than WT promoter”.

B10: Promoter 11: group 2 promoter variant; RBS placed upstream of -35 (nucleic acid)
DNA: CAAGATCGGTGCCGGATCGGCACCAGTTAGGTCTTGACATCGCATCTTTTTGTACCTATAATAGATTCATGATGA
modifications: expressed or natural sequence
In the case of B10, the “transcriptional activity compared with WT promoter, measured by reporter expression” value (DH10B E. coli cells) is reported as “transcriptionally more active than WT promoter”.
